Source: FireProtDB (doi:10.1021/bi049320b)

Conditions: Bacillus amyloliquefaciens, pH 8, 25 °C, Urea, Fluorescence, Tris-HCl 30 mM, whole UniProt chain shown

B1: Barstar wild type, P11540 (protein)
chain: MKKAVINGEQIRSISDLHQTLKKELALPEYYGENLDALWDCLTGWVEYPLVLEWRQFEQSKQLTENGAESVLQVFREAKAEGCDITIILS
denaturant m value (KCl 0.5 M): 1.12 kcal/mol/M
unfolding free energy (KCl 0.5 M): 5.8 kcal/mol
denaturant m value (KCl 1.0 M): 1.19 kcal/mol/M
unfolding free energy (KCl 1.0 M): 6.9 kcal/mol
denaturant m value: 1.16 kcal/mol/M
unfolding free energy: 4.8 kcal/mol
